# Results taken from the nanobody polyreactivity screen of Harvey et al. (2022).
# Experiment: yeast display, Sf9 membrane polyspecificity reagent, FACS + sequencing; frameworks hold sequencing errors
# How it was run: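 After 36–48 hours of galactose induction, yeast (Saccharomyces cerevisiae BJ5465) displaying a synthetic nanobody library were stained at 4 °C for 1 hour with 10% biotinylated, detergent-solubilized Sf9 membrane reagent. Streptavidin microbeads enriched the stained cells before FACS sorting into low and high (top ~1%) gates on anti-HA and streptavidin fluorescence. Each clone's polyreactivity label reflects its gate of origin.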
row,Sequence,polyreactivity (PSR sort gate)
1,QVQLVESGGGLVQAGGSLRLSCAASGYNFERNAMGWYRPAPGKERELVAAITDDGDDTYYADSVKGRFTISRDNAKNTVYLQMNSLKPEDTAVYYCAKDLYYGDYYYWGQGTQVTVSS,low polyreactivity
2,QVQLVESGGGLVQAGGSLRLSCAASGYNFPYYAMGWYRQAPGKERELVAGITTDGSSTYYADSVKGRFTISRDNAKNTVYLQMNSLKPEDTAVYYCYGYPGYTWGWYDYWGQGTQVTVSS,low polyreactivity
3,QVQLVESGGGLVQAGGSLRLSCAASGYNFRQYAMGWYRQATGKEREFVAAISQTGGSTYYADSVKGRFTISRDNANNTVYLQMNSLKPEDTAVYYCAARYRGQRYRKLDYWGQGTQVTVSS,high polyreactivity
4,QVQLVESGGGLVQAGGSLRLSCAASGYNFYINPMGWYRQAPGKERELVATIRRRGGSTYYADSVKGRFTISRDNAKNTVYLQMNSLKPEDTAVYYCNAVTLGGKYVYQYRRGFDYWGQGTQVTVSS,high polyreactivity
5,QVQLVESGGGLVQAGGSLRLSCAASGYNLSVNAMGWYRQAPGKERELVATIDIAGGSTYYADSVNGRFTISRDNAKNTVYLQMNSMKPVDTAVYYCNTEWNSLSKSSLGGRYDHWGQCTQVTVSS,low polyreactivity
6,QVQLVESGGGLVQAGGSLRLSCAASGYTAYTYTMGWYRQAPGKVREWVAAMSRRSDSTYADSVKGRFTISRDNAKNTVYLQMNSLKPEDTADYYCAAVRVSYRSLSKSYYWGQGTQVTVSS,high polyreactivity
7,QVQLVESGGGLVQAGGSLRLSCAASGYTFALYAMGWYRQAPGKERELVAAITWNGGSTYYADSVKGRFTISRDNAKNTVYLQMNSLKPEDTSVYYCNVESSQSSSGFDYWGQGTQVTVSL,low polyreactivity
8,QVQLVESGGGLVQAGGSLRLSCAASGYTFARNAMGWYRQAPGKERELVADINWSGTNTYYADSVKGRFTISRDNAKNTVYLQMNSLKPEDTAVDYCAKDLYFSGYEFDYWGQGTQVTVSS,low polyreactivity
9,QVQLVESGGGLVQAGGSLRLSCAASGYTFASNAMGWYRPAPGKERELVAAITRGGSTNYADSVKGRFTISRDNAKNTVYLQMNSLKPEDTAVYYFAAPRYRHTRKGGYWGQGTQVTVSS,low polyreactivity
10,QVQLVESGGGLVQAGGSLRLSCAASGYTFAVYAMGWYRQAPGKERELVAAISSDGSTNYADSVKGRFTISRDNAKNTVYFQMNSLKPEDTSVYYCAKVYKDLAGPFYDYWGQGTQVTVSS,low polyreactivity
11,QVQLVESGGGLVQAGGSLRLSCAASGYTFAWYAMGWYRQAPGKERELVAAINNGGSTSYADSVKGRFTISRDNAKNTVYLQMNSLKPEDTAVYYCNADHYGGPHWMDYWGQGTQVTVSS,low polyreactivity
12,QVQLVESGGGLVQAGGSLRLSCAASGYTFAWYAMGWYRQAPGKERELVAAITVSGGSTYYADSVKGRFTISRDNAKNTVYLQMNSLKPEDTAVYYCAAVGKSPSRFGYWGQGTQVTVSS,low polyreactivity
13,QVQLVESGGGLVQAGGSLRLSCAASGYTFDGYAMGWYRQAPGKERELVAAINSGGGTYYADSVKGRFTISRDNAKNTVYLQMNSLKPEDTAVYYCAKYTYDYWGQGTQVTVSS,low polyreactivity
14,QVQLVESGGGLVQAGGSLRLSCAASGYTFDWYTMGWYRQAPGKERELVAAISASGVRTYYADSVKGRFTISRDNAKNTVYLQMNSLKPEDTAVYYCNRVYSTSRITQYEFDYWGQGTQVTVSS,low polyreactivity
15,QVQLVESGGGLVQAGGSLRLSCAASGYTFEPYAMGWYRQAPGKESELVAAISRGGTTNYADSVKGRFTISRDNAKNTVYLQINSLKPEDTAVYYCASSYFRRVFYSIYEYDYWGQGTQVTVSS,low polyreactivity
16,QVQLVESGGGLVQAGGSLRLSCAASGYTFEYYAMGWYRQAPGKERELVAAISWSGGDTYYADSVKGRFTISRDNAKNTVYLQMNSLNPEDTAVYYCAAVRYYRRRTGSYYHYDYWGQGTQVTVSS,low polyreactivity
17,QVQLVESGGGLVQAGGSLRLSCAASGYTFFKNAMGWYRQAPGKERELVAAISYSGGRTYYADSVKGRFTISRDNAKNTVYLQMNSLKPEDTAVYYCAKATRVITDDGSYGYWGQGTQVTVSS,high polyreactivity
